Data published in patent US10143730B2, “Peptides and combination of peptides for use in immunotherapy against various cancers” (immatics biotechnologies GmbH, priority 2015, dated 2018).

Molecular target: T1, HLA-A*02 (Homo sapiens, UniProt P04439, D140Y/D185E/D98H/E176V/E277Q/G131W/G231S/I119V/I121R/I166T/I218V/L300P/N151K/N90K/P208A/P217A/Q86G/Q94H/R138H/R169H)
T1 construct: made in house
Experiment: MHC binding assay, UV-ligand exchange with beta2m ELISA (peptide exchange yield)
Settings: binding to HLA-A*02
Description: Candidate peptides for T cell based therapies according to the present invention were further tested for their MHC binding capacity (affinity). The individual peptide-MHC complexes were produced by UV-ligand exchange, where a UV-sensitive peptide is cleaved upon UV-irradiation, and exchanged with the peptide of interest as analyzed. Only peptide candidates that can effectively bind and stabilize the peptide-receptive MHC molecules prevent dissociation of the MHC complexes. To determine the yield of the exchange reaction, an ELISA was performed based on the detection of the light chain (β2m) of stabilized MHC complexes. The assay was performed as generally described in Rodenko et al. (Rodenko et al., 2006).
96 well MAXISorp plates (NUNC) were coated over night with 2 ug/ml streptavidin in PBS at room temperature, washed 4× and blocked for 1h at 37° C. in 2% BSA containing blocking buffer. Refolded HLA-A*02:01/MLA-001 monomers served as standards, covering the range of 15-500 ng/ml. Peptide-MHC monomers of the UV-exchange reaction were diluted 100 fold in blocking buffer. Samples were incubated for 1h at 37° C., washed four times, incubated with 2 ug/ml HRP conjugated anti-32m for 1h at 37° C., washed again and detected with TMB solution that is stopped with […]. Absorption was measured at 450 nm. Candidate peptides that show a high exchange yield (preferably higher than 50%, most preferred higher than 75%) are generally preferred for a generation and production of antibodies or fragments thereof, and/or T cell receptors or fragments thereof, as they show sufficient avidity to the MHC molecules and prevent dissociation of the MHC complexes.

| Substance | Peptide exchange (MHC class I binding score, peptide exchange yield) |
| --- | --- |
| 63 (SQIPAQPSV; listed as Homo sapiens) [compound 63] | ++ (20%-49% = ++) |
| 253 (ALAELIDNSL; listed as Homo sapiens) [compound 253] | +++ (50%-75% = +++) |
| 54 (VLNPLITAV; listed as Homo sapiens) [compound 54] | +++ (50%-75% = +++) |
| 32 (VQLDSIEDLEV; listed as Homo sapiens) [compound 32] | +++ (50%-75% = +++) |
| 264 (KLFPQETLFL; listed as Homo sapiens) [compound 264] | +++ (50%-75% = +++) |
| 105 (ALLGTKILL; listed as Homo sapiens) [compound 105] | +++ (50%-75% = +++) |
| 50 (ILFHGVFYA; listed as Homo sapiens) [compound 50] | +++ (50%-75% = +++) |
| 41 (ALFENTPKA; listed as Homo sapiens) [compound 41] | ++ (20%-49% = ++) |
| 125 (SLADYEHFV; listed as Homo sapiens) [compound 125] | ++++ (> = 75% = ++++) |
| 37 (ILAPFSVDL; listed as Homo sapiens) [compound 37] | +++ (50%-75% = +++) |
| 244 (YLLEKNRVV; listed as Homo sapiens) [compound 244] | ++ (20%-49% = ++) |
| 263 (VLLSEQGDVKL; listed as Homo sapiens) [compound 263] | ++ (20%-49% = ++) |
| 103 (YLVSEIFKA; listed as Homo sapiens) [compound 103] | +++ (50%-75% = +++) |
| 42 (LLDSVSRL; listed as Homo sapiens) [compound 42] | + (<20% = +) |
| 120 (VTPVTVSAV; listed as Homo sapiens) [compound 120] | + (<20% = +) |
| 87 (TIYKDFVYI; listed as Homo sapiens) [compound 87] | ++ (20%-49% = ++) |
| 258 (LLSERFINV; listed as Homo sapiens) [compound 258] | ++++ (> = 75% = ++++) |
| 69 (FLAVGLVDV; listed as Homo sapiens) [compound 69] | +++ (50%-75% = +++) |
| 10 (GIAGSLKTV; listed as Homo sapiens) [compound 10] | +++ (50%-75% = +++) |
| 152 (MMVGDLLEV; listed as Homo sapiens) [compound 152] | +++ (50%-75% = +++) |
| 109 (SLDPSVTHL; listed as Homo sapiens) [compound 109] | ++ (20%-49% = ++) |

| Substance | Peptide exchange (MHC class I binding score, peptide exchange yield) |
| --- | --- |
| 45 (SLTEVSLPL; listed as Homo sapiens) [compound 45] | +++ (50%-75% = +++) |
| 56 (FLHDEKEGIYI; listed as Homo sapiens) [compound 56] | +++ (50%-75% = +++) |
| 237 (ALAPHLDDA; listed as Homo sapiens) [compound 237] | +++ (50%-75% = +++) |
| 143 (ALLPELREV; listed as Homo sapiens) [compound 143] | +++ (50%-75% = +++) |
| 145 (YLWATIQRI; listed as Homo sapiens) [compound 145] | +++ (50%-75% = +++) |
| 89 (QLAPVFQRV; listed as Homo sapiens) [compound 89] | ++ (20%-49% = ++) |
| 142 (ILVEGISTV; listed as Homo sapiens) [compound 142] | +++ (50%-75% = +++) |
| 238 (GLYERPTAA; listed as Homo sapiens) [compound 238] | ++ (20%-49% = ++) |
| 115 (SLDPDTLPAV; listed as Homo sapiens) [compound 115] | ++ (20%-49% = ++) |
| 48 (QVIEDSTGV; listed as Homo sapiens) [compound 48] | ++ (20%-49% = ++) |
| 44 (SLFETAWEA; listed as Homo sapiens) [compound 44] | +++ (50%-75% = +++) |
| 124 (KVMATIEKV; listed as Homo sapiens) [compound 124] | ++ (20%-49% = ++) |
| 255 (SLLHFTENL; listed as Homo sapiens) [compound 255] | +++ (50%-75% = +++) |
| 62 (ALNPELVQA; listed as Homo sapiens) [compound 62] | ++ (20%-49% = ++) |
| 131 (VTSNSGILGV; listed as Homo sapiens) [compound 131] | +++ (50%-75% = +++) |
| 22 (FVDPNTQEKV; listed as Homo sapiens) [compound 22] | ++ (20%-49% = ++) |
| 75 (AVIKFLELL; listed as Homo sapiens) [compound 75] | +++ (50%-75% = +++) |
| 67 (TLLQRLTEV; listed as Homo sapiens) [compound 67] | +++ (50%-75% = +++) |
| 126 (QMFQYFITV; listed as Homo sapiens) [compound 126] | ++++ (> = 75% = ++++) |
| 121 (FTIFRTISV; listed as Homo sapiens) [compound 121] | +++ (50%-75% = +++) |
| 128 (TQSPATLSV; listed as Homo sapiens) [compound 128] | ++ (20%-49% = ++) |

| Substance | Peptide exchange (MHC class I binding score, peptide exchange yield) |
| --- | --- |
| 111 (AIVDLIHDI; listed as Homo sapiens) [compound 111] | ++ (20%-49% = ++) |
| 157 (TLTSLLAQA; listed as Homo sapiens) [compound 157] | +++ (50%-75% = +++) |
| 134 (GLAVPTPSV; listed as Homo sapiens) [compound 134] | +++ (50%-75% = +++) |
| 107 (LLVPTSGIYFV; listed as Homo sapiens) [compound 107] | +++ (50%-75% = +++) |
| 13 (ALMAMLVYV; listed as Homo sapiens) [compound 13] | ++ (20%-49% = ++) |
| 46 (SQFPLPLAV; listed as Homo sapiens) [compound 46] | ++ (20%-49% = ++) |
| 39 (HLLEGSVGV; listed as Homo sapiens) [compound 39] | +++ (50%-75% = +++) |
| 58 (YLLPLLPAL; listed as Homo sapiens) [compound 58] | +++ (50%-75% = +++) |
| 236 (STIAILNSV; listed as Homo sapiens) [compound 236] | +++ (50%-75% = +++) |
| 81 (NALDKVLSV; listed as Homo sapiens) [compound 81] | +++ (50%-75% = +++) |
| 117 (KMPDVELFV; listed as Homo sapiens) [compound 117] | +++ (50%-75% = +++) |
| 86 (SVDSHFQEV; listed as Homo sapiens) [compound 86] | ++ (20%-49% = ++) |
| 16 (YTLDIPVLFGV; listed as Homo sapiens) [compound 16] | ++++ (> = 75% = ++++) |
| 21 (AIQDEIRSV; listed as Homo sapiens) [compound 21] | +++ (50%-75% = +++) |
| 38 (FLGPRIIGL; listed as Homo sapiens) [compound 38] | +++ (50%-75% = +++) |
| 250 (SLAPATPEV; listed as Homo sapiens) [compound 250] | +++ (50%-75% = +++) |
| 98 (RLFPDFFTRVAL; listed as Homo sapiens) [compound 98] | ++ (20%-49% = ++) |
| 242 (WLYGEDHQI; listed as Homo sapiens) [compound 242] | ++ (20%-49% = ++) |
| 47 (ALLERGELFV; listed as Homo sapiens) [compound 47] | +++ (50%-75% = +++) |
